Data as given in patent publication US20120288481A1 (BRIGHAM AND WOMEN S HOSPITAL, published 2012).

Molecular target: human EphA2 receptor on human cardiac stem cells (hCSCs) (human, UniProt P29317 24-976)
Experiment: cell-based or functional assay

Sequence of human EphA2 receptor on human cardiac stem cells (hCSCs) (P29317 24-976 limits assumed): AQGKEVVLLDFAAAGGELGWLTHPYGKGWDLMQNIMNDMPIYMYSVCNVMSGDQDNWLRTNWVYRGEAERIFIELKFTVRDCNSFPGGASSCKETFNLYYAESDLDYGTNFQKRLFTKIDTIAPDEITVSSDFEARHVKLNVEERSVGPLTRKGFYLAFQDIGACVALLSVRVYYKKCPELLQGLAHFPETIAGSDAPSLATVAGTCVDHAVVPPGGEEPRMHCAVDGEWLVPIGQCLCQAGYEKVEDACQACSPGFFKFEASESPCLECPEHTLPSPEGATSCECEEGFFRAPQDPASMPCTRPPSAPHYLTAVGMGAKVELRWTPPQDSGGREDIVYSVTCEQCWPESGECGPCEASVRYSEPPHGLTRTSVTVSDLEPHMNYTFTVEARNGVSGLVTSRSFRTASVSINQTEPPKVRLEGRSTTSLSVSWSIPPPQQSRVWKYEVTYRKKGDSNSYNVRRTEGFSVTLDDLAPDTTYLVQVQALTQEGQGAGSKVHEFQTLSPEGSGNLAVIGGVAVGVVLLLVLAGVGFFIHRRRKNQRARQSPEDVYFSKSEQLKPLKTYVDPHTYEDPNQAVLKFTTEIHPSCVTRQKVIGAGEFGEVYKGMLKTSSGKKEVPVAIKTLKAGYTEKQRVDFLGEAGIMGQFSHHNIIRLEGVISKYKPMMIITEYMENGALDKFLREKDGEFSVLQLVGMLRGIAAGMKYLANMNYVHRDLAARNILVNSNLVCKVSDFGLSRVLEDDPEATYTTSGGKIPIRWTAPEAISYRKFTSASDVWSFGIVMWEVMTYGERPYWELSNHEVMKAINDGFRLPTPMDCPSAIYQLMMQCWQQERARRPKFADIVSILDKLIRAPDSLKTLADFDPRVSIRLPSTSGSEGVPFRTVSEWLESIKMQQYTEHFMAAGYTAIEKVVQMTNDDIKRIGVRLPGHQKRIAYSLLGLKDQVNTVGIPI

speed of locomotion of hCSCs within the myocardium (two-photon microscopy): 2 fold
B1: human ephrin A1-Fcy chimeric protein (ephrin A1-Fc) (Fc fusion, UniProt P20827 19-182, looked up, not shown: a dimerising Fc or GST)
chain: DRHTVFWNSSNPKFRNEDYTIHVQLNDYVDIICPHYEDHSVADAAMEQYILYLVEHEEYQLCQPQSKDQVRWQCNRPSAKHGPEKLSEKFQRFTPFTLGKEFKEGHSYYYISKPIHQHEDRCLRLKVTVSGKITHSPQAHDNPQEKRLAADDPEVRVLHSIGHS
